Patent US12723105 (BEIJING STARMAB BIOMED TECHNOLOGY, dated 2026)
Each block holds one binder with its values, some of them ahead of it.

Experiments:
[1] = biological target: T1, CD47 natively expressed on tumor cell surface (Jurkat, HL60 cells) (human, UniProt Q08722 19-323); assay: flow cytometry on HL60 cells (express CD47 but not PD-L1)
T1 construct: whole, on cells; also called CD47 on the HL60 cell surface; CD47 on the Jurkat cell surface

Human serum albumin [2] = biological target: T2, Human serum albumin (human, UniProt P02768 25-609); assay: BLI (Octet) as in Example 1, His-tagged VHH, HSA
T2 construct: also called HSA

mouse serum albumin = mouse serum albumin (mouse, UniProt P07724 25-608); assay: BLI (Octet), cross-species albumin binding
Human serum albumin [3] = biological target: T2, Human serum albumin; assay: BLI (Octet), cross-species albumin binding
Monkey serum albumin = Monkey serum albumin (Monkey); assay: BLI (Octet), cross-species albumin binding
Human CD16A = biological target: T3, Human CD16A (human, UniProt P08637 17-208, limits assumed); assay: BLI (Octet) as in Example 1, His-tagged VHH, human CD16A
T3 construct: also called FcγRIIIa
T3 sequence (P08637 17-208 limits assumed): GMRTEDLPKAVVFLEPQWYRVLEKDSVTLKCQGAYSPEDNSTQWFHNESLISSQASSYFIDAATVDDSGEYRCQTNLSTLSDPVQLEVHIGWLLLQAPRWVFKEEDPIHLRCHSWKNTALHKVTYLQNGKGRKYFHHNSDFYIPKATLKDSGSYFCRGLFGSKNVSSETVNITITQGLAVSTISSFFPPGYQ

B1: 1518-HS5 (CD16F1-L1-hHS5-L1-hA09-10-3-L3-hA09-10-4-L1-hPL16-L3-hPL16) (bispecific antibody)
chain: EVQLVESGGGLVQPGGSLRLSCAVSGSLFSARVMGWYRQAPGKQRELVAAITSGVRTDYADSVKGRFTISRDNAKRAVYLQMNSLKPEDTAVYYCNVNLYNTGNYWGQGTQVTVSSGGGGSGGGSEVQLLESGGGLVQPGGSLRLSCAASGRTFTTHAMGWFRQAPGKEREFVSAINWGGRTTYYADSVKGRFIISRDTGANTLYLQMNSLRAEDTAVYYCASNLDTYNVRAGTTNSWGQGTQVTVSSGGGGSGGGSEVQLVESGGGLVQPGGSLRLSCAASGGGRTFSNYALGWFRQAPGKEREFVAAISRSGGNINYADSVKGRFTISRDNFKNTVYLQMSSLRAEDTAVYYCAAHYLLLPSYISTSTNMYNYWGQGTQVTVSSAAAQVQLVESGGGLVQPGGSLRLSCAASGGGRTFSNYALGWFRQAPGKEREFVAAISRSGGNINYADSVKGRFTISRDNAKNTVYLQMSSLRAEDTAVYYCAAHYLLLPSYISTSTNMYNYWGQGTQVTVSSGGGGSGGGSEVQLVESGGGLVQPGGSLRLSCAASGGTFLTYSMSWVRQAPGKEREFVSSINWSGYMTYYADSVKGRFTISRDNSKNTLYLQMNSLRAEDTAVYYCAAARTAIAAKRSSEFDYWGQGTQVTVSSAAAEVQLVESGGGLVQPGGSLRLSCAASGGTFLTYSMSWVRQAPGKEREFVSSINWSGYMTYYADSVKGRFTISRDNSKNTLYLQMNSLRAEDTAVYYCAAARTAIAAKRSSEFDYWGQGTQVTVSS
notes: Multi-specific single chain antibody with the 9-residue linker G4SG3S between the anti-HSA and anti-CD47 domains
EC50 [1]: 26 nM

B4: CD16E11 (VHH)
VHH: QVQLVESGGGLVQPGGSLTLSCRASGFTFSNHAMSWVRQAPGKGLEWVSEISFNGHATRYADSLKGRFTISRDNAKNTLYLQMNTLKPEDTAVYYCRKGWNATPQIGERGRGTQVTVSS
notes: not shown: C-terminal His-tag
Kd (Human CD16A): 3.02 nM
koff (Human CD16A): 6e-05 s⁻¹
kon (Human CD16A): 19900 M⁻¹ s⁻¹

B6: 1518-HS5-GS15 (bispecific antibody)
chain: EVQLVESGGGLVQPGGSLRLSCAVSGSLFSARVMGWYRQAPGKQRELVAAITSGVRTDYADSVKGRFTISRDNAKRAVYLQMNSLKPEDTAVYYCNVNLYNTGNYWGQGTQVTVSSGGGGSGGGSEVQLLESGGGLVQPGGSLRLSCAASGRTFTTHAMGWFRQAPGKEREFVSAINWGGRTTYYADSVKGRFIISRDTGANTLYLQMNSLRAEDTAVYYCASNLDTYNVRAGTTNSWGQGTQVTVSSGGGGSGGGGSGGGGSEVQLVESGGGLVQPGGSLRLSCAASGGGRTFSNYALGWFRQAPGKEREFVAAISRSGGNINYADSVKGRFTISRDNFKNTVYLQMSSLRAEDTAVYYCAAHYLLLPSYISTSTNMYNYWGQGTQVTVSSAAAQVQLVESGGGLVQPGGSLRLSCAASGGGRTFSNYALGWFRQAPGKEREFVAAISRSGGNINYADSVKGRFTISRDNAKNTVYLQMSSLRAEDTAVYYCAAHYLLLPSYISTSTNMYNYWGQGTQVTVSSGGGGSGGGSEVQLVESGGGLVQPGGSLRLSCAASGGTFLTYSMSWVRQAPGKEREFVSSINWSGYMTYYADSVKGRFTISRDNSKNTLYLQMNSLRAEDTAVYYCAAARTAIAAKRSSEFDYWGQGTQVTVSSAAAEVQLVESGGGLVQPGGSLRLSCAASGGTFLTYSMSWVRQAPGKEREFVSSINWSGYMTYYADSVKGRFTISRDNSKNTLYLQMNSLRAEDTAVYYCAAARTAIAAKRSSEFDYWGQGTQVTVSS
notes: Multi-specific single chain antibody with the 15-residue linker (G4S)3 between the anti-HSA and anti-CD47 domains
EC50 [1]: 8.4 nM

B8: CD16F1 (VHH)
VHH: EVQLVESGGGLVQPGGSLRLSCAVSGSLFSARVMGWYRQAPGKQRELVAAITSGVRTDYADSVKGRFTISRDNAKRAVYLQMNSLKPEDTAVYYCNVNLYNTGNYWGQGTQVTVSS
notes: not shown: C-terminal His-tag
Kd (Human CD16A): 4.68 nM
koff (Human CD16A): 0.000109 s⁻¹
kon (Human CD16A): 23300 M⁻¹ s⁻¹

Results, then the binder that gave them:

Kd (Human serum albumin [2]): 2.89 nM
koff (Human serum albumin [2]): 8.01e-05 s⁻¹
kon (Human serum albumin [2]): 27700 M⁻¹ s⁻¹
B2: HS10 (VHH)
VHH: EVQLVESGGGLVQPGGSLRLSCAASGSTDSAYRMGWFRQAPGKEREFVSAINWSDGRTYYADSVKGRFTISRDNSKNTLYLQMNSLRAEDTAVYYCAADPDSRLYYTVPQNYDYWGQGTLVTVSS
notes: not shown: C-terminal His-tag

Kd (mouse serum albumin): 4.57 nM
Kd (Human serum albumin [3]): 3.18 nM
Kd (Monkey serum albumin): 8.08 nM
B3: hHS10 (VHH)
VHH: B2 VHH
notes: also called humanized HS10; not shown: C-terminal His-tag

Kd (Human serum albumin [3]): 0.817 nM
Kd (Monkey serum albumin): 11.6 nM
B5: hHS5 (VHH)
VHH: EVQLLESGGGLVQPGGSLRLSCAASGRTFTTHAMGWFRQAPGKEREFVSAINWGGRTTYYADSVKGRFIISRDTGANTLYLQMNSLRAEDTAVYYCASNLDTYNVRAGTTNSWGQGTQVTVSS
notes: also called humanized HS5; not shown: C-terminal His-tag

Kd (Human serum albumin [2]): 0.498 nM
koff (Human serum albumin [2]): 0.000829 s⁻¹
kon (Human serum albumin [2]): 1.67e+06 M⁻¹ s⁻¹
B7: HS6 (VHH)
VHH: EVQLVESGGGLVQAGGSLRLSCAASGRIFHTYAVGWFRQAPGKERESVVIINWSSDHTYVAQSVKGRFTISRDRAKNTFYLQMNSLKPEDTAVYYCAVRRRLYGLRESDFDSWGQGTQVTVSS
notes: not shown: C-terminal His-tag

Kd (Human serum albumin [2]): 0.568 nM
koff (Human serum albumin [2]): 0.000583 s⁻¹
kon (Human serum albumin [2]): 1.03e+06 M⁻¹ s⁻¹
B9: HS12 (VHH)
VHH: QVQLVESGGGSVQAGGSLRLSCAASGRTFISFSMGWFRQAPGKEREFVASITNSGSGILYGDSVKGRFTISRDNAKNTMYLQMNSLKPEDTAVYYCAAGTGAGRYRYASMFDYWGQGTQVTVSS
notes: not shown: C-terminal His-tag
